From publication PMC5934816

Molecular target: mLDH, mammalian lactate dehydrogenase (bovine) (UniProt P19858)
Assay: ELONA
Conditions: ELONA: 500 ng immobilized protein; aptamer in HMCKN (2 mM HEPES, 0.2 mM MgCl2, 0.2 mM CaCl2, 0.2 mM KCl, 15 mM NaCl, pH 7.4), 2 h, room temperature; washes …

Sequence “GCCTGTTGTGAGCCTCCTAACCAGCTCGTAGAAAAAAAAAGATATTGCTTCAATTATCTCCTCGCGTTCAATTAACCCAGCATGCTTATTCTTGTCTCCC [rLDH 4]” has a binding signal of 0.053 OD450.
